Read-outs that look alike come from different tables or passages of the source.
Key:
[1] = target: T1, recombinant human CD40-his (Acro biosystems, Cat. No. CD0-H5228) (human, UniProt P25942 21-193); experiment: BLI (Octet RED 96), antibody captured from cell supernatant on AHC sensor, human CD40-his as analyte, 1:1 fit
T1 construct: Bought protein; also called human CD40-his protein; not shown: His tag
Protocol: After six days of culture in a shake flask, the cell supernatant containing the humanized antibodies huC1H1-V1 to huC1H1-V4 was harvested and the binding affinity of the antibodies to human CD40 was determined on an Octet system (Fortebio, Octet RED 96) according to the following procedures. Briefly, an anti-human IgG Fc capture (AHC) biosensor (from ForteBio) was pre-soaked in a 10 mM glycine solution (pH 1.5) for 3 s, and then soaked in a running buffer (PBST containing 0.5% w/v of BSA) for 3 s. The pre-soaking and soaking procedures were repeated 3 times. Then, the sensor was soaked in the cell supernatant containing the humanized anti-CD40 antibody, chimeric antibody C1H1 dissolved in HBS-EP⁺ buffer at a concentration of 5 μg/mL, or the benchmark dissolved in HBS-EP⁺ buffer at a concentration of 5 μg/mL for 120 s, and then soaked in the running buffer for 5 min. The new baseline was run in the running buffer for 180 s. The sensor was then soaked for 120 s in human CD40-his protein (Acro biosystems, Cat. No. CD0-H5228) 2-fold serially diluted from 40 nM in the running buffer and for 10 min in the running buffer […]. Finally, the sensor was pre-soaked in a 10 mM glycine solution (pH 1.5) for 3 s, and then soaked in the running buffer for 3 s. The pre-soaking and soaking procedures were repeated 3 times. The association and dissociation curves were fitted to a 1:1 Langmuir binding model using ForteBio Data Analysis 8.1.

[2] = target: T2, human CD40-Fc protein (human, biotinylated (sites not given) in the capture ELISA and the benchmark blocking ELISA; not biotinylated in the ligand blocking ELISA); experiment: capture ELISA: antibody captured on coated goat anti-human IgG F(ab')2, biotinylated human CD40-Fc 1.15 nM, streptavidin-HRP, OD(450-630)
T2 construct: also called biotinylated human CD40-Fc
Protocol: (§1) The plate was washed once with a washing buffer (PBS+0.05% v/v of Tween-20, PBST) and then blocked with 200 μL/well blocking buffer (PBST containing 5% w/v of skim milk) for 2 h at 37° C. The plate was washed 4 times, and the anti-CD40 antibody of the present application, BM1, BM2, and a negative control hIgG (human immunoglobulin for intravenous injection (pH 4), Hualan Biological Engineering Inc.) serially 5-fold diluted from 66.7 nM in a PBST containing 2.5% w/v of skim milk was added at 100 μL per well. The plate was incubated for 40 min at 37° C. and washed 4 times. A biotinylated human CD40-Fc protein (amino acid residues 21-193 of SEQ ID NO: 30 linked to the N terminus of amino acid residues 99-330 of SEQ ID NO: 28, dissolved in PBST containing 2.5% w/v of skim milk at a concentration of 1.15 nM) was added at 100 μL/well to a 96-well plate coated with the anti-CD40 antibody. The plate was incubated at 37° C. for 40 min and washed 4 times. An HRP-labeled streptavidin (diluted at 1:10000 in PBST, Jackson Immuno Research, Cat. No. 016-030-084) was added at 100 μL/well, and the plate was incubated at 37° C. for another 40 min. After the last wash, 100 μL/well of ELISA substrate TMB (Innoreagents, Cat. No. TMB-S-002) was added and the plate was incubated at room temperature. After 3-10 min, the reaction was stopped by adding 1 M H₂SO₄ at 50 µL/well, and the absorbance of each well was read on a microplate reader using the dual wavelength mode (TMB detection wavelength: 450 nm, reference wavelength: 630 nm). Curves of OD(450-630) values vs. antibody concentration were plotted. Data were analyzed using Graphpad Prism software, and EC₅₀ values were obtained.

[3] = target: T2, human CD40-Fc protein; experiment: as above; remark: listed apart in the source
Protocol: as §1

T2 sequence (chain, as listed by the source limits assumed): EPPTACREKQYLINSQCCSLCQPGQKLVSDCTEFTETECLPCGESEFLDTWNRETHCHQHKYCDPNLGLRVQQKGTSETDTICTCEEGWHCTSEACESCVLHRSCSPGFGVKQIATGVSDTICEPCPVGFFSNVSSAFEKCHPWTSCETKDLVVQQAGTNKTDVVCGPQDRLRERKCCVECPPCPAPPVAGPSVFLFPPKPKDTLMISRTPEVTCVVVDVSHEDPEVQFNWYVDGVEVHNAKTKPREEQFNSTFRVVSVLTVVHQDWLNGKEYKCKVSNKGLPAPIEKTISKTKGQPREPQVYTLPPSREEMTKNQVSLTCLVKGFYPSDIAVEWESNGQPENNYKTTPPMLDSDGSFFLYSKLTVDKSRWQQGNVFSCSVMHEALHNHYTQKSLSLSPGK
T1 sequence (P25942 21-193 limits assumed): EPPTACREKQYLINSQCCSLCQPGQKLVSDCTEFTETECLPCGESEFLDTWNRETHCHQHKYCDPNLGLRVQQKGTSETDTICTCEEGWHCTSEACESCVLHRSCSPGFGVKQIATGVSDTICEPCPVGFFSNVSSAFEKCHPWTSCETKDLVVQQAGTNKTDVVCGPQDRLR

Kd [1] | koff [1] | kon [1] | EC50 [2] | EC50 [3] | Binder
5.41 nM | 0.00283 s⁻¹ | 523000 M⁻¹ s⁻¹ | – | – | humanized antibody huC1H1-V3 (antibody, human IgG2, kappa, V domains shown, Human IgG2 / kappa; Tested as cell supernatant in the Octet assay) VH: EVQLVESGGGLVKPGGSLRLSCAASGFTFSNYGISWVRQAPGKGLEWVASISSGGDNTYYPDNVKGRFTISRDNAKNSLYLQMNSLRAEDTAVYYCARAGEKAMDYWGQGTLVTVSS VL: EIVLTQSPATLSLSPGERATLSCRASQTINNNLHWYQQKPGQAPRLLIYYASQSISGIPARFSGSGSGTDFTLTISSLEPEDFAVYYCQQFSSWPLTFGGGTKVEIKR
8.66 nM | 0.00367 s⁻¹ | 424000 M⁻¹ s⁻¹ | – | – | humanized antibody huC1H1-V4 (antibody, human IgG2, kappa, V domains shown, Human IgG2 / kappa; Tested as cell supernatant in the Octet assay) VH: EVQLVESGGGLVKPGGSLRLSCAASGFTFSNYGISWVRQAPGKGLEWVSSISSGGDNTYYPDNVKGRFTISRDNAKNSLYLQMNSLRAEDTAVYYCARAGEKAMDYWGQGTLVTVSS VL: EIVLTQSPATLSLSPGERATLSCRASQTINNNLHWYQQKPGQAPRLLIYYASQSISGIPARFSGSGSGTDFTLTISSLEPEDFAVYYCQQFSSWPLTFGGGTKVEIKR
– | – | – | 15 nM | – | chimeric antibody 1D1 (antibody, human IgG1, kappa, V domains shown, Mouse variable regions on human IgG1 / kappa constant regions) VH: EVQLQQSGPELVKPGASVKMSCKASGYTFTDYVMHWVKQKPGQGLECIGYINPYNDGTTYNEKFKGKATLTSDKSSNAAYLELSSLTSEDSAVYYCARGFLRESWFGYWGQGTLVTVSA VL: DVLLTQTPLSLPVSLGDQASISCRSSQNIVHSNGNTYLDWYLQKPGQSPKLLIYKVSNRFSGVPDRFSGSGSGTDFTLKISRVEAEDLGVYYCFQGSHVPPTFGGGTKLELKR
– | – | – | 8.7 nM | – | mouse anti-CD40 monoclonal antibody 1D1 (parent of chimeric antibody 1D1) (antibody, V domains shown, Parent mouse antibody of chimeric 1D1; also called parent antibody) VH: EVQLQQSGPELVKPGASVKMSCKASGYTFTDYVMHWVKQKPGQGLECIGYINPYNDGTTYNEKFKGKATLTSDKSSNAAYLELSSLTSEDSAVYYCARGFLRESWFGYWGQGTLVTVSA VL: DVLLTQTPLSLPVSLGDQASISCRSSQNIVHSNGNTYLDWYLQKPGQSPKLLIYKVSNRFSGVPDRFSGSGSGTDFTLKISRVEAEDLGVYYCFQGSHVPPTFGGGTKLELK
– | – | – | – | 1.33 nM | chimeric antibody 1A3 (antibody, human IgG1, kappa, V domains shown, Mouse variable regions on human IgG1 / kappa constant regions) VH: EVQLQQSGPELVKTGASVKISCKASGYSFIGYYLHWVKQSLGKGLEWIGYISCHDGTIIYNQKFKGKATFTLDTSSSTAYMQFSSLTSEDSAVYFCARFLNYYGSNYAMDYWGQGTSVTVSS VL: DIVMTQSHKFMSTSVGDRVSITCKASQDVGPAVAWYQQKPGQSPKLLIYWASTRHTGVPDRFTGSGYGTDFTLTINNVQSEDLADYFCQQYFTYPLTFGGGTKLEIKR
– | – | – | – | 0.592 nM | mouse anti-CD40 monoclonal antibody 1A3 (parent of chimeric antibody 1A3) (antibody, V domains shown, Parent mouse antibody of chimeric 1A3; also called parent antibody) VH: EVQLQQSGPELVKTGASVKISCKASGYSFIGYYLHWVKQSLGKGLEWIGYISCHDGTIIYNQKFKGKATFTLDTSSSTAYMQFSSLTSEDSAVYFCARFLNYYGSNYAMDYWGQGTSVTVSS VL: DIVMTQSHKFMSTSVGDRVSITCKASQDVGPAVAWYQQKPGQSPKLLIYWASTRHTGVPDRFTGSGYGTDFTLTINNVQSEDLADYFCQQYFTYPLTFGGGTKLEIK
